Data on one substance can be found in US20060002951A1.

In the experiment the target is wild-type human APOBEC3G with a fused HA tag at the C-terminus (human) (UniProt Q9HC16). In words: co-immunoprecipitation with anti-HA from 293T cell lysate, Western blot with anti-CA; ratio normalized to hGag. Background: Immunoblotting shows a protein as a band on a membrane.
Sequence of wild-type human APOBEC3G with a fused HA tag at the C-terminus (human) (Q9HC16 whole entry, the tested form may be a part): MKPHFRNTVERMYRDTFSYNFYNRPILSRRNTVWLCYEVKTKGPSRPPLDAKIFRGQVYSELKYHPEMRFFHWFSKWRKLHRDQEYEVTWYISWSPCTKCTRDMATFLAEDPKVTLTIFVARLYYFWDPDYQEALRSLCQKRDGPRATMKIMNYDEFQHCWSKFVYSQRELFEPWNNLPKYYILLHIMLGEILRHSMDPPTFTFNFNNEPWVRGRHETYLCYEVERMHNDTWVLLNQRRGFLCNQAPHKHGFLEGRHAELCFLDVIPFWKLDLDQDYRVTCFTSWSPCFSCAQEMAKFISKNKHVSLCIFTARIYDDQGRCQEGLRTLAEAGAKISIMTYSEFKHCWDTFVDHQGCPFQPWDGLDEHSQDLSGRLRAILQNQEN

For the substance “hGag deletion mutant Δ378-500 (from UniProt P04585 1-377)”, the reduction in the interaction of Gag with APOBEC3G against hGag is greater than 95%.
